# Assay results published in patent US20240376204A1 (JIANGSU HENGRUI PHARMACEUTICALS, published 2024).
# Substitutions are numbered along the chain they refer to. In names and notes the source's numbering stands.
# T1: human PVRIG expressed on cells (human, UniProt Q6DKI7 41-326)
# T1 construct: whole, on cells; also called HEK293 cells expressing human PVRIG; cells overexpressing human PVRIG
# T1 sequence (looked up): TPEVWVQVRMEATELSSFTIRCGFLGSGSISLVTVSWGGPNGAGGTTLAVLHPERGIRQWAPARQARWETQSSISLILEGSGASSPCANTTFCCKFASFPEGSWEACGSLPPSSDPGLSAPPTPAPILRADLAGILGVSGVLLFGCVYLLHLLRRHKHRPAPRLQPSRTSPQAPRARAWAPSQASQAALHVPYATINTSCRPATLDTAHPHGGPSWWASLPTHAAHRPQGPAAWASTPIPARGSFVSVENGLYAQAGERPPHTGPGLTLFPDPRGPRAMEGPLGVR
# T2: human TIGIT recombinant protein (human, UniProt Q495A1 22-141)
# T2 construct: also called human TIGIT antigen (AcroBiosystem, TIT-H52H3); TIGIT protein
# T2 sequence (looked up): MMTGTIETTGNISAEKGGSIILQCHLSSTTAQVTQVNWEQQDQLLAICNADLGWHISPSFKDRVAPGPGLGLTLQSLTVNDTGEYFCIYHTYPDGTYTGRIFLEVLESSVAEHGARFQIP
# T3: his-tagged human PVRIG (h-PVRIG-his) recombinant protein (human, UniProt Q6DKI7 41-171, limits assumed)
# T3 construct: Acrobiosystems; also called Human PVRIG-his; human PVRIG recombinant protein; not shown: his tag
# T3 sequence (looked up): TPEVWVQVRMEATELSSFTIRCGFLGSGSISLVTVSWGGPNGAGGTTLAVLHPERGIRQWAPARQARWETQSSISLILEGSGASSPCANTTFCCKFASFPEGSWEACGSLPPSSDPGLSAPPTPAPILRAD
# B1: A17m0902-1708-151H7-01-C (trispecific antibody, human IgG4 S228P, kappa)
# heavy: not shown
# light: DIQMTQSPSSLSASVGDRVTITCRASENIYSYLAWYQQKPGKSPKLLIYNARTLAEGVPSRFSGSGSGTDFTLTISSLQPEDFATYYCQYHSGSPLPFGGGTKVEIKRTVAAPSVFIFPPSDEQLKSGTASVVCLLNNFYPREAKVQWKVDNALQSGNSQESVTEQDSKDSTYSLSSTLTLSKADYEKHKVYACEVTHQGLSSPVTKSFNRGEC
# notes: Type C; first residue of the 151H7 part changed from H to E; also called 151H7 H1E trispecific
# B2: 1708-151H7 (bispecific antibody, human IgG4 S228P, kappa)
# heavy: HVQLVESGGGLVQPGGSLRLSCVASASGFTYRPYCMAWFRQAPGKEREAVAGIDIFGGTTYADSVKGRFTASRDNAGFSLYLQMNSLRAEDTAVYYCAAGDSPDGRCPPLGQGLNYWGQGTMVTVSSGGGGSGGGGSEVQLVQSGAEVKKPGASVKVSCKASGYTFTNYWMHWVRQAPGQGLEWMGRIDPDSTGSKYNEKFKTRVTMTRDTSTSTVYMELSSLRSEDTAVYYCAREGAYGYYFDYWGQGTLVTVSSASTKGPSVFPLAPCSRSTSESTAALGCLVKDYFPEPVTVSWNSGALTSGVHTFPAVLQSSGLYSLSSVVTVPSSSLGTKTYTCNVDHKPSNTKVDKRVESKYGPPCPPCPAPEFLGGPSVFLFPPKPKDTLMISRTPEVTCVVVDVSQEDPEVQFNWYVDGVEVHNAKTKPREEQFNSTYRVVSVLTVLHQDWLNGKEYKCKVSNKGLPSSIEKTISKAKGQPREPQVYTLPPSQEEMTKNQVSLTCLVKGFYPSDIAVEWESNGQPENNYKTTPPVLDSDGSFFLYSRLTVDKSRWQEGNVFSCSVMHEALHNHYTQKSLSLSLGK
# light: B1 light
# notes: Humanized anti-PVRIG/TIGIT
# B3: A17m0902-1708-151H7-02-C (trispecific antibody, human IgG4 S228P, kappa)
# heavy: not shown
# light: B1 light
# notes: Type C; first residue of the 151H7 part changed from H to Q; also called 151H7 H1Q trispecific
# B4: A17m0902-1708-151H7-C (trispecific antibody, human IgG4 S228P, kappa)
# heavy: not shown
# light: B1 light
# notes: Type C; also called A17m0902-151H7-C
# B5: A17h1-1708-30H2-D (trispecific antibody, human IgG4 S228P, kappa)
# heavy: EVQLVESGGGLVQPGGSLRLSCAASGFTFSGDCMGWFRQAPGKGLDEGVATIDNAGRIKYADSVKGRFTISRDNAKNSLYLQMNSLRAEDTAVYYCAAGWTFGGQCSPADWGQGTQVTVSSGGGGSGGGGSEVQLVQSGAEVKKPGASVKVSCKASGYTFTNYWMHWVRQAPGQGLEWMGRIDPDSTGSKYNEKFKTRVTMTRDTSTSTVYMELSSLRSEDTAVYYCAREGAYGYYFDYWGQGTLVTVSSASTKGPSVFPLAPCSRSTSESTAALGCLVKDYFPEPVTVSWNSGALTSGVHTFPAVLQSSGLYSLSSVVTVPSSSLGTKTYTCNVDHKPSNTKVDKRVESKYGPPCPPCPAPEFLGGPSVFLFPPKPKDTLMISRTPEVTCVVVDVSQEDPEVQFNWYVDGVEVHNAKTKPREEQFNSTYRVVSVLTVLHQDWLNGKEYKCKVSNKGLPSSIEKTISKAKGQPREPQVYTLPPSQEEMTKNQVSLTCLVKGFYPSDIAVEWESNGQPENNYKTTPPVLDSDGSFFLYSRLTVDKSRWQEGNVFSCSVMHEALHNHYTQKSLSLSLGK
# light: DIQMTQSPSSLSASVGDRVTITCRASENIYSYLAWYQQKPGKSPKLLIYNARTLAEGVPSRFSGSGSGTDFTLTISSLQPEDFATYYCQYHSGSPLPFGGGTKVEIKRTVAAPSVFIFPPSDEQLKSGTASVVCLLNNFYPREAKVQWKVDNALQSGNSQESVTEQDSKDSTYSLSSTLTLSKADYEKHKVYACEVTHQGLSSPVTKSFNRGECGGGGSGGGGSEVQLQESGGGLVQPGGSLRLSCTASGLTFSDYSMSWYRQAPGKGRELVAIISGSGVIAHYVDSVKGRFTISRDNSKNTVYLQMRSLTPEDRAVYYCRAVSDWDDYWGQGTQVTVSS
# B6: A17h1-1708-151H7-C (trispecific antibody, human IgG4 S228P, kappa)
# heavy: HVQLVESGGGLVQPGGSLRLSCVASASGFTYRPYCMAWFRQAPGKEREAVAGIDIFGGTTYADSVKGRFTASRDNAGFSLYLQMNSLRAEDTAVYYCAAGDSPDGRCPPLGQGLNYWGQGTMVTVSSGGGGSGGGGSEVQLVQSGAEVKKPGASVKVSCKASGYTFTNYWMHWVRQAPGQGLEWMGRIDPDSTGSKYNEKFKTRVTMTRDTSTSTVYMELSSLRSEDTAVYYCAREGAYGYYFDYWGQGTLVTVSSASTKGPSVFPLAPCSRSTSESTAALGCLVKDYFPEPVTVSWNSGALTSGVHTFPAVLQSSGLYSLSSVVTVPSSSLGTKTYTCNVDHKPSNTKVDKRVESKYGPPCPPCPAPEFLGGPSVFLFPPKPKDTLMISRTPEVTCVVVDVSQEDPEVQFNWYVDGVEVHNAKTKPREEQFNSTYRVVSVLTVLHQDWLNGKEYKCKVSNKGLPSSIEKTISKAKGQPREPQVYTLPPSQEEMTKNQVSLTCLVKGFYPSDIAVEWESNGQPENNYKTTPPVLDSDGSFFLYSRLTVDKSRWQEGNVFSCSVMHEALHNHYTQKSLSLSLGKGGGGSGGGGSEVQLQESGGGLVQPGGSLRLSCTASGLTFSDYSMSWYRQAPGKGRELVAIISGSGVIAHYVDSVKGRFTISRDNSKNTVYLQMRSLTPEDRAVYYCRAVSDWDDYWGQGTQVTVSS
# light: B1 light
# notes: Type C
# B7: A17h1-1708-30H2-A (trispecific antibody, human IgG4 S228P, kappa)
# heavy: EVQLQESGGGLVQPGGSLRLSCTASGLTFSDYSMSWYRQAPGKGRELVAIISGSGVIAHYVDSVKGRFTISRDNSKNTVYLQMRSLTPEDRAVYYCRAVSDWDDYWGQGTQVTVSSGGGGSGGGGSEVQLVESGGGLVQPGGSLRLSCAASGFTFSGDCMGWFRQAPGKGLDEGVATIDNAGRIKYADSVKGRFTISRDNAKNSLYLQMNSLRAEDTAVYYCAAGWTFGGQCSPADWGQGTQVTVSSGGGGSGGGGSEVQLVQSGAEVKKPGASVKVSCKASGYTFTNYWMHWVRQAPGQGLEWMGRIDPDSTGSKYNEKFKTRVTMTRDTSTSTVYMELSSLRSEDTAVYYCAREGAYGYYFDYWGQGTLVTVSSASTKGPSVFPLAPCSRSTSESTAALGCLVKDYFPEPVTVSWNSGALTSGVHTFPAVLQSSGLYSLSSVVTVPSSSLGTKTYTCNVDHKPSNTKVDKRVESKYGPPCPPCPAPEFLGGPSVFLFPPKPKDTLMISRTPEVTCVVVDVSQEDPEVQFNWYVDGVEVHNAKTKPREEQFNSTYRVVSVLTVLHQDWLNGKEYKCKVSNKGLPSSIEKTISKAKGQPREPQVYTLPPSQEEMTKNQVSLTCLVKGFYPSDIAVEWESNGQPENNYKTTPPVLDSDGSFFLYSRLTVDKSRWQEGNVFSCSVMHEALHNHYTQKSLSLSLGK
# light: B1 light
# B8: A17h1-1708-30H2-C (trispecific antibody, human IgG4 S228P, kappa)
# heavy: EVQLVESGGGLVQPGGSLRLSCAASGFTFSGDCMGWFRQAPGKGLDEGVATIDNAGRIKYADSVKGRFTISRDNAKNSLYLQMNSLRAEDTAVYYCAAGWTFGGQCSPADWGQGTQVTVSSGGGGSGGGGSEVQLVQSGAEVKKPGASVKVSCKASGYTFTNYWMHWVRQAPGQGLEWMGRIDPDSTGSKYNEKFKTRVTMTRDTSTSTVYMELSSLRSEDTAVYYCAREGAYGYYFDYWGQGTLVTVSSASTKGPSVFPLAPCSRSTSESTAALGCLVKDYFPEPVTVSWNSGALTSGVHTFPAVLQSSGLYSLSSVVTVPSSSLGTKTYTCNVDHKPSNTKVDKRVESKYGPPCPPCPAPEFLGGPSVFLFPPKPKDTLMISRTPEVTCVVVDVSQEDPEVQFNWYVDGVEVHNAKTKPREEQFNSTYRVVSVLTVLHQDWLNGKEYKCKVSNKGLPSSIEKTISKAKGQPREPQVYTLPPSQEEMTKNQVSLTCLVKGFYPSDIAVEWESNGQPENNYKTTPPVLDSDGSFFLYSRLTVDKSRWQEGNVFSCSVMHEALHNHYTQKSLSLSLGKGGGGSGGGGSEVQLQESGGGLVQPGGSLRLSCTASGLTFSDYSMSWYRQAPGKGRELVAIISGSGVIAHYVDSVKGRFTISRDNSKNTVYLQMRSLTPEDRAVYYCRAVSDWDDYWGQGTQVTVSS
# light: B1 light
# notes: Type C
# B9: A17h1-1708-151H7-B (trispecific antibody, human IgG4 S228P, kappa)
# heavy: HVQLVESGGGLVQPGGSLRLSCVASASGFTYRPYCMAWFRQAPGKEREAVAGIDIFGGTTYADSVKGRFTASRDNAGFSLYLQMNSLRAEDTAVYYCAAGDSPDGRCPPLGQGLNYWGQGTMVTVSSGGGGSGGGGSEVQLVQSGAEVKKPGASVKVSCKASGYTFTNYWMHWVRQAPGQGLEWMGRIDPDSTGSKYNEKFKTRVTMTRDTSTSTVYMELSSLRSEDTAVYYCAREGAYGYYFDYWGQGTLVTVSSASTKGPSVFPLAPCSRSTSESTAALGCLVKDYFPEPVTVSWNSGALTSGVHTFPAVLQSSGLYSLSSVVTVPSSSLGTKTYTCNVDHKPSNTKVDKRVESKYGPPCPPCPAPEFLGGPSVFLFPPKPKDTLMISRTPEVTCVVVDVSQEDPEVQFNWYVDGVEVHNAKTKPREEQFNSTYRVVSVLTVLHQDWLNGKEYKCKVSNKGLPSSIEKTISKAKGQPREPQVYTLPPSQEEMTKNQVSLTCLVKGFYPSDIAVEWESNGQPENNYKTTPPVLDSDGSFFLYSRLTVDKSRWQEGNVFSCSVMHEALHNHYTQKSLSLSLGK
# light: EVQLQESGGGLVQPGGSLRLSCTASGLTFSDYSMSWYRQAPGKGRELVAIISGSGVIAHYVDSVKGRFTISRDNSKNTVYLQMRSLTPEDRAVYYCRAVSDWDDYWGQGTQVTVSSGGGGSGGGGSDIQMTQSPSSLSASVGDRVTITCRASENIYSYLAWYQQKPGKSPKLLIYNARTLAEGVPSRFSGSGSGTDFTLTISSLQPEDFATYYCQYHSGSPLPFGGGTKVEIKRTVAAPSVFIFPPSDEQLKSGTASVVCLLNNFYPREAKVQWKVDNALQSGNSQESVTEQDSKDSTYSLSSTLTLSKADYEKHKVYACEVTHQGLSSPVTKSFNRGEC
# B10: A17h1-1708-30H2-B (trispecific antibody, human IgG4 S228P, kappa)
# heavy: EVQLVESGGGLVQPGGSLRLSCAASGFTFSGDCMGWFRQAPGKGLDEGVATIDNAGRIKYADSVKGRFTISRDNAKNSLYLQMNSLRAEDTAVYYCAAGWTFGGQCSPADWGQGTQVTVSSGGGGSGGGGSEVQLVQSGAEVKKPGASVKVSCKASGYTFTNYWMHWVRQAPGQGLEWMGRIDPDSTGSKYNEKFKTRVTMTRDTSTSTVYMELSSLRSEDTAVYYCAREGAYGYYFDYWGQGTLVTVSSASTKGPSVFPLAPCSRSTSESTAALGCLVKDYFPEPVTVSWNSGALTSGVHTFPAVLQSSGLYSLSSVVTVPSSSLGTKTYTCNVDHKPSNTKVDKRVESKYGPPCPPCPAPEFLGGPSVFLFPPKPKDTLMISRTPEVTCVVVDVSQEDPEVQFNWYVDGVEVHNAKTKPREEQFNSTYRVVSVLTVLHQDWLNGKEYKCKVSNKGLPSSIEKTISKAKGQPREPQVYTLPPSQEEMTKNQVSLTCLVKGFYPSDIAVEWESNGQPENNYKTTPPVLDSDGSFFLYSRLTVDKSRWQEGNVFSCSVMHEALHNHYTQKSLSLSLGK
# light: B9 light
# B11: 151H7 (Fc fusion, not shown: a dimerising Fc or GST)
# chain: HVQLVESGGGLVQPGGSLRLSCVASASGFTYRPYCMAWFRQAPGKEREAVAGIDIFGGTTYADSVKGRFTASRDNAGFSLYLQMNSLRAEDTAVYYCAAGDSPDGRCPPLGQGLNYWGQGTMVTVSS
# B12: 30H2 (Fc fusion, not shown: a dimerising Fc or GST)
# chain: EVQLVESGGGLVQPGGSLRLSCAASGFTFSGDCMGWFRQAPGKGLDEGVATIDNAGRIKYADSVKGRFTISRDNAKNSLYLQMNSLRAEDTAVYYCAAGWTFGGQCSPADWGQGTQVTVSS
# B13: 30H3 (Fc fusion, not shown: a dimerising Fc or GST)
# chain: B12 chain with F27Y, T28S, F29Y
# B14: 1708-30H2 (bispecific antibody, human IgG4 S228P, kappa)
# heavy: not shown
# light: B1 light
# notes: Humanized anti-PVRIG/TIGIT
# Biological target: T1, human PVRIG expressed on cells
# Experiment: FACS, HEK293F cells expressing human PVRIG
# Method: A stably transfected HEK293F cell strain expressing the human PVRIG gene, a stably transfected CHO-K1 cell strain expressing the human TIGIT gene, and Jurkat cells expressing human PD-1 were used. The cell strain was inoculated into a 96-well plate at 2×10⁵ cells/well. The plate was centrifuged at 300 g for 5 min, and the supernatant was removed. 100 μL of test antibody was added, and the plate was incubated at 4° C. for 1 h. The plate was centrifuged, and the supernatant was removed. The plate was washed 3 times with 200 μL of wash buffer (PBS+2% FBS), and 100 μL of an Alexa Fluor 488-labeled anti-human IgG secondary antibody (Invitrogen, A-11013) diluted at 1:500 was added. The plate was incubated at 4° C. for 1 h. The plate was centrifuged, and the supernatant was removed. The plate was washed 3 times with 200 μL of wash buffer (PBS+2% FBS). The cells were resuspended in 100 μL of PBS and tested on a flow cytometer (BD FACS Calibur or BD FACS Canto_ II).
Binder,EC50 [nM],EMAX
B1,0.105,1550
B2,0.112,1360
B3,0.0964,1520
B4,0.0944,1520

# Biological target: T4, human PD-1 expressed on cells (human, UniProt Q15116 25-288)
# Experiment: cell-based or functional assay
# T4 sequence (Q15116 25-288 limits assumed): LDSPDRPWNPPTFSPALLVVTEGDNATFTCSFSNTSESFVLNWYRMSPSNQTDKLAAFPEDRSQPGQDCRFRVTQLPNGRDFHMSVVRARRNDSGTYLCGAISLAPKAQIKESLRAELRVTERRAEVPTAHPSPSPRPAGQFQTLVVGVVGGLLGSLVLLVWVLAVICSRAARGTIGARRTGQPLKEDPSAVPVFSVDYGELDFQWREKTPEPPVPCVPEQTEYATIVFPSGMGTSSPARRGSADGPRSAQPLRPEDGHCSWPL
Binder,"DC:T MLR result, 0.1 nM antibody (unit not given)","DC:T MLR result, 1 nM antibody (unit not given)","DC:T MLR result, 10 nM antibody (unit not given)","DC:T MLR result, 100 nM antibody (unit not given)"
B5,115,116,122,136
B6,118,136,151,152
B7,118,118,124,128
B8,133,131,123,149
B9,108,97.8,136,148
B10,108,137,125,134

# Biological target: T4, human PD-1 expressed on cells
# Experiment: cell-based or functional assay
# Remark: another data set of the same source
row,Binder,"IC50, PD-1/PD-L1 NFAT reporter gene system [nM]"
1,B5,0.825
2,B7,0.801
3,B8,0.264
4,B10,0.344

# Biological target: T1, human PVRIG expressed on cells
# Experiment: cell-based or functional assay
row,Binder,PVRIG reporter gene cell activity EC50 [nM]
1,B11,0.038
2,B12,0.176
3,B13,0.078

# Biological target: T4, human PD-1 expressed on cells
# Experiment: cell-based or functional assay
# Remark: another data set of the same source
row,Binder,IC50 (read off the curve) [nM]
1,B6,~0.8
2,B9,~0.4

# Biological target: T2, human TIGIT recombinant protein
# Experiment: ELISA, plate coated with TIGIT protein
# Method: (§1) ELISA assays were performed. TIGIT or PVRIG protein (his tag, Acrobiosystems, PVG-H52H4) was dissolved in PBS to 1 μg/mL, and the solution was added to a 96-well plate at 100 μL/well. The plate was coated with the antigen overnight at 4° C. The plate was washed with PBST solution three times. PBST/1% BSA solution was added, and the plate was incubated at 37° C. for 1 h for blocking. After three washes with PBST solution, different concentrations of the trispecific antibodies (diluted with PBST/1% BSA solution) were added, and the plate was incubated at 37° C. for 1.5 h. The plate was washed with PBST solution three times. […] After three washes with PBST solution, TMB solution was added at 100 μL/well. After 5 min of reaction at room temperature, 50 μL of stop solution was added. OD450 values were measured using a microplate reader, and EC₅₀ was calculated.
row,Binder,EC50 [nM]
1,B5,0.113
2,B14,0.116
3,B7,0.0875
4,B8,0.0951
5,B10,0.107

# Biological target: T3, his-tagged human PVRIG (h-PVRIG-his) …
# Experiment: ELISA, plate coated with PVRIG protein (his tag)
# Method: as §1
row,Binder,EC50 [nM]
1,B5,0.0885
2,B6,0.16
3,B14,0.0846
4,B7,0.0589
5,B2,0.125
6,B8,0.0822
7,B9,0.154
8,B10,0.0583
